The results in this text go back to article PMC6057844 (Biochemical and biophysical research communications, 2018).

This data set deals with the molecule itself.

B1: Drp1 in HD mouse striatal cells (natural protein, UniProt Q8K1M6 1-736, looked up)
chain: MEALIPVINKLQDVFNTVGADIIQLPQIVVVGTQSSGKSSVLESLVGRDLLPRGTGVVTRRPLILQLVHVSPEDKRKTTGEENGVEAEEWGKFLHTKNKLYTDFDEIRQEIENETERISGNNKGVSPEPIHLKVFSPNVVNLTLVDLPGMTKVPVGDQPKDIELQIRELILRFISNPNSIILAVTAANTDMATSEALKISREVDPDGRRTLAVITKLDLMDAGTDAMDVLMGRVIPVKLGIIGVVNRSQLDINNKKSVTDSIRDEYAFLQKKYPSLANRNGTKYLARTLNRLLMHHIRDCLPELKTRINVLAAQYQSLLNSYGEPVDDKSATLLQLITKFATEYCNTIEGTAKYIETSELCGGARICYIFHETFGRTLESVDPLGGLNTIDILTAIRNATGPRPALFVPEVSFELLVKRQIKRLEEPSLRCVELVHEEMQRIIQHCSNYSTQELLRFPKLHDAIVEVVTCLLRKRLPVTNEMVHNLVAIELAYINTKHPDFADACGLMNNNIEEQRRNRLARELPSAGSRDKSSKVPSALAPASQEPPPAASAEADGKLIQDNRRETKNVPSAGGGIGDGGQEPTTGNWRGMLKTSKAEELLAEEKSKPIPIMPASPQKGHAVNLLDVPVPVARKLSAREQRDCEVIERLIKSYFLIVRKNIQDSVPKAVMHFLVNHVKDTLQSELVGQLYKSSLLDDLLTESEDMAQRRKEAADMLKALQGASQIIAEIRETHLW
On to B1, for which the stoichiometry N (as a rule, the number of molecules, sites or subunits per partner or assembly) amounted to 4.
